Data taken from publication PMC3950713.

Tests used:
Experiment in all cases: MST
HpDprA(5-217)K137E = target: T1, HpDprA(5-217)K137E (Helicobacter pylori 26695, UniProt O25100 5-217, K137E)
T1 sequence: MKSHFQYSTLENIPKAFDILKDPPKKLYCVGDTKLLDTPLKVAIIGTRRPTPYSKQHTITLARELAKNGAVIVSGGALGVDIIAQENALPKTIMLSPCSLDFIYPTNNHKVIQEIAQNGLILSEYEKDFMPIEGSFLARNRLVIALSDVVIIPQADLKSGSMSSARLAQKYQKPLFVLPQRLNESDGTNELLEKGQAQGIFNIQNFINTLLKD

HpDprA(5-217)F140E = target: T2, HpDprA(5-217)F140E (Helicobacter pylori 26695, UniProt O25100 5-217, F140E)
T2 sequence: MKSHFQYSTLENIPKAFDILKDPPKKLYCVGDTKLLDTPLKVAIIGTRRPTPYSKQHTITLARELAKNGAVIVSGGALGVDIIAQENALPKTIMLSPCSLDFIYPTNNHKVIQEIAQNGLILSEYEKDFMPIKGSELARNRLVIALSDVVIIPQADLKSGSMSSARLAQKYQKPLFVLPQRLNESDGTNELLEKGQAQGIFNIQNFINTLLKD

HpDprA full-length = target: T3, HpDprA full-length (Helicobacter pylori 26695, UniProt O25100 1-270)
T3 sequence: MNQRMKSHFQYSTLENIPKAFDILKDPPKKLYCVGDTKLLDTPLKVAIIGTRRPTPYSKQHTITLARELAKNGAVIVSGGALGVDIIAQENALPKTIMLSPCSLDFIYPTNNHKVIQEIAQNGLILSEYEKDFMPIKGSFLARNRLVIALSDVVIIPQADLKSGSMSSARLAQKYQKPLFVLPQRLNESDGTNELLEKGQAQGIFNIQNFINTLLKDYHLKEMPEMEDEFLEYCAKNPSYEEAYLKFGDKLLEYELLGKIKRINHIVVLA

HpDprA(5-217)K137E/R143E = target: T4, HpDprA(5-217)K137E/R143E (Helicobacter pylori 26695, UniProt O25100 5-217, K137E;R143E)
T4 sequence: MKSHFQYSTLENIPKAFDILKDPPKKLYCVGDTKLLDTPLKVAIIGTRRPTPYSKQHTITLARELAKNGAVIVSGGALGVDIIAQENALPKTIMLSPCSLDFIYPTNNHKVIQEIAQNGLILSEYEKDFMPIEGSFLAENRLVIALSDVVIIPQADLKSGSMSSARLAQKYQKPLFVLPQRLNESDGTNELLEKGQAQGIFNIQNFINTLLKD

HpDprA(5-217)R52E/K137E = target: T5, HpDprA(5-217)R52E/K137E (Helicobacter pylori 26695, UniProt O25100 5-217, R52E;K137E)
T5 sequence: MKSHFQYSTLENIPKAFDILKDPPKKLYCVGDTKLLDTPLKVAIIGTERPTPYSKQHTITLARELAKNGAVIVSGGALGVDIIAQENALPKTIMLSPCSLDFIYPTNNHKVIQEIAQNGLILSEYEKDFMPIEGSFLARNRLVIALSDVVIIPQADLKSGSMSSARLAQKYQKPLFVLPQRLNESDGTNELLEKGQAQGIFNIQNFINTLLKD

HpDprA(5-217)WT = target: T6, HpDprA(5-217)WT (Helicobacter pylori 26695, UniProt O25100 5-217)
T6 sequence: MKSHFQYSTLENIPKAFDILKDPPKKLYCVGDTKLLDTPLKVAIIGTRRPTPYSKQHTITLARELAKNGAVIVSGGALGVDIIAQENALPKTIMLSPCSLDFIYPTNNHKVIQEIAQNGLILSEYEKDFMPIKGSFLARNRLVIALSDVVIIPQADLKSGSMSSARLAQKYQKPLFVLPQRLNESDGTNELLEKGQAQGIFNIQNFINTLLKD

**Q.** How did the Kd (HpDprA(5-217)K137E) turn out when TTTTTTTTTTTTTTTTTTTTTTTTTTTTTTTTTTT (ssDNA) [dT35] was run?
**A.** 7.22 ± 0.216 µM

**Q.** What about the Kd (HpDprA(5-217)F140E) of the same binder?
**A.** 556 ± 28 nM

**Q.** And the Kd (HpDprA full-length)?
**A.** 2.26 ± 0.167 nM

**Q.** Does TTTTTTTTTTTTTTTTTTTTTTTTTTTTTTTTTTT (ssDNA) [dT35] bind (HpDprA(5-217)K137E/R143E)?
**A.** no binding

**Q.** Does TTTTTTTTTTTTTTTTTTTTTTTTTTTTTTTTTTT (ssDNA) [dT35] bind (HpDprA(5-217)R52E/K137E)?
**A.** no binding

**Q.** What about the Kd (HpDprA(5-217)WT) of the same binder?
**A.** 31.5 ± 0.806 nM
